Molecular target: T1, alpha-fetoprotein (AFP) (UniProt P02771 19-609)
T1 sequence: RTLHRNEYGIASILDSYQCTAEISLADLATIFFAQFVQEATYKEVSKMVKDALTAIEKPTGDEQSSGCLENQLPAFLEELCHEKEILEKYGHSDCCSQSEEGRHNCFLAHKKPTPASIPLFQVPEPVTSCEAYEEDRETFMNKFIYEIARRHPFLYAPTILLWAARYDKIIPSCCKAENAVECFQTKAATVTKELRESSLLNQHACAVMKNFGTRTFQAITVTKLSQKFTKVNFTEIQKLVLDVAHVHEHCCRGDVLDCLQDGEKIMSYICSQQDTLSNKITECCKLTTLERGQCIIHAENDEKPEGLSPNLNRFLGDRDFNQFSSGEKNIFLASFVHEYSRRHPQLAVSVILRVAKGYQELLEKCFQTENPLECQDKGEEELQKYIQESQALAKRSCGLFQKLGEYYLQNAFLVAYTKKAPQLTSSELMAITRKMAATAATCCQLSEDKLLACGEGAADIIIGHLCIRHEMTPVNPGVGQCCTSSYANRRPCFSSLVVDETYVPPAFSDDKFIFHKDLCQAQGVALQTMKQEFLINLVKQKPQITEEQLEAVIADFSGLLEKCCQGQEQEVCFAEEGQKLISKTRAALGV
Assay: electrochemical sandwich assay (DPV, methylene blue read-out); AFP 50 ng/ml captured by anti-AFP; aptamer 10 uM; MB 10 mM; DPV in 0.010 M PBS pH 7.4 (performance section prints 0.0010 M); aptamer 10 uM, 40 min; temperature not given
Conditions: protein: commercial

GTGACGCTCCTAACGCTGACTCAGGTGCAGTTCTCGACTCGGTCTT (ssDNA) [AFP aptamer]: binds.

— PMC9646986, “A sandwich-like configuration with a signal amplification strategy using a methylene blue/aptamer complex on a heterojunction 2D MoSe2/2D WSe2 electrode: Toward a portable and sensitive electrochemica”
